Measurements: article PMC10127577 (2023)

Molecular target: T1, CDTb protoxin (proCDTb), CDTb residues 43 to 876 (Clostridioides difficile, UniProt O32739 43-876)
T1 chain: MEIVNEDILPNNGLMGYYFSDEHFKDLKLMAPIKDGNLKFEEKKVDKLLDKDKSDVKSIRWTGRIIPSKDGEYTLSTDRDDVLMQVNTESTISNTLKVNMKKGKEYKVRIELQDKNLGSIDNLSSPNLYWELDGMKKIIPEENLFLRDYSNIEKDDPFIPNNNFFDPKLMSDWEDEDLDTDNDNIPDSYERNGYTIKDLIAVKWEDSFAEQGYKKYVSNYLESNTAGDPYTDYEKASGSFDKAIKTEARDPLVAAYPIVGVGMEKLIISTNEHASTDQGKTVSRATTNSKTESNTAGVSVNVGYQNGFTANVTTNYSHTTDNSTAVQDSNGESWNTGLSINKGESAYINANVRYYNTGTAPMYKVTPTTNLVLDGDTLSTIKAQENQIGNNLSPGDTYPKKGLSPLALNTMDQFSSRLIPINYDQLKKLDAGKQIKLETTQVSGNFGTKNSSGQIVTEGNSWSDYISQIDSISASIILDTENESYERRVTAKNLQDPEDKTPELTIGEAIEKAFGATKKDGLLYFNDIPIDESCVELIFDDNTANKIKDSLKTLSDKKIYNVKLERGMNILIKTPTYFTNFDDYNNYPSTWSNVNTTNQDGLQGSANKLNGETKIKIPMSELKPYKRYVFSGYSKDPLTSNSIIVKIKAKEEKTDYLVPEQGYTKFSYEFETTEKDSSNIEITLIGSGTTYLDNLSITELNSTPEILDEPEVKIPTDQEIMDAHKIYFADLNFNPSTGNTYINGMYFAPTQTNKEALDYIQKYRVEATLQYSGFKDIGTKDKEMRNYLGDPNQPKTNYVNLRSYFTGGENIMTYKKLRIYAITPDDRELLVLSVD
Assay: SPR

Row | Binder | koff
1 | BINTOXB/22 Fab (Fab, V domains shown) VH: QIQLVQSGPELKKPGETVKISCKASGYTFTNYGMNWVKQAPGKDLKWMGWMSTYTGEPTYADDFKGRFAFSLETSASTAYLQINNLKNEDMATYFCARRGNYLSFDYWGQGTTLTVSS VL: DIVMTQSHKFMSTSVGDRVSITCKASQDVSTAVGWYQQKPGQSPKLLIYSASYRYTGVPDRFTGSGSGTDFTFTISSVQAEDLAVYYCQQHYSPPFTFGSGTELEIK | 0.00299 s⁻¹
2 | BINTOXB/9 Fab (Fab, V domains shown) VH: QVQLQQSGAELARPGASVKMSCKASGYTFTSYTMHWVKQRPGQGLEWIGYINPSNDYTSYNQKFKDKATLTADKSSSTAYMQLSSLTSEDSAVYYCARCWGYDPYYFDYWGQGTTLTVSS VL: DIVMSQSPSLLAVSAGEKVTMSCKSSQSLLNSRTRKNYLAWYQQKPGQSPKVLIYWASTRESGVPDRFTGSGSGTDFTLTISSVQAEDLAVYYCKQSYNLLTFGAGTKLELK | 0.000227 s⁻¹
